# Results published in the DeepSol protein solubility set.
# Test: soluble on expression in E. coli; label from the status in PepcDB or PDB records
row,Sequence,soluble on expression in E. coli
1,GPGSMFRRLSSSARAVVAARFYTPPEGLKKLYASDFENSKYPLNIVPSDSVLFAKFLYKAAEEKGNFDNILSDFQKIAAAASKLPIFWERTAVVEKIPEFKQLSEPTFFTLVWMQNNGMLELIQEVAEVYETFVNAKQKKAVAKIFVAPGGEKNVEEARRVAEELHKGLKELADYTLVLKTVVDRTIVKGFAVELAGQYVNKAEGQQKQAGRADEVDYTNLPAPKPQKTVWDDNIETEVLRKYLDGLSQYDMEEAKYGV,not soluble
2,MGSDKIHHHHHHQSFTPGEIWPDNHQVHINAHGGGILYENGTYYWFGEHKTEGEAGNLANVGVHCYSSDDLYHWKDCGIALSVIENDPGHPISKGCILERPKVIYNPLTKKYVMWFHLEPKGAGYSGALSGIALSDRVTGPYTFLKAVRPNAGSWPINVLPIHKTTRRPSAEEERQCTGGSLPAHPDSLNILGRDMEQGQMARDMNLFVDDDGKAYHIYSSEENSTLHIAELDPTYTGYTGKYIRVFINRFMEAPAMFKKDGNYYLIMSGCSGWNPNAARSAIASSIWGEWKELGNPCIGQDADLTFHSQSTYILPVQGKKNQFIYMGDRWTPQNAIDGRYIWLPIHFEGPKPIIEWKDSWTLD,not soluble
3,MGSDKIHHHHHHMYETFMKRAIELAKKGLGRVNPNPPVGAVVVKDGRIIAEGFHPYFGGPHAERMAIESARKKGEDLRGATLIVTLEPCDHHGKTPPCTDLIIESGIKTVVIGTRDPNPVSGNGVEKFRNHGIEVIEGVLEEEVKKLCEFFITYVTKKRPFVALKYASTLDGKIADHRGDSKWITDKLRFKVHEMRNIYSAVLVGAGTVLKDNPQLTCRLKEGRNPVRVILDRKGVLSGKVFRVFEENARVIVFTESEEAEYPPHVEKALSDCSVESILRNLYERDIDSVLVEGGSKVFSEFLDHADVVFGFYSTKIFGKGLDVFSGYLSDVSVPPKFKVVNVEFSDSEFLVEMRPCSRE,soluble
4,MIYKSIAERLRIRLNSADFTLNSLLPGEKKLAEEFAVSRMTIRKAIDLLVAWGLVVRRHGSGTYLVRKDVLHQTASLTGLVEVLKRQGKTVTSQVLIFEIMPAPPAIASQLRIQINEQIYFSRRVRFVEGKPLMLEDSYMPVKLFRNLSLQHLEGSKFEYIEQECGILIGGNYESLMPVLADRLLARQMKVAEHTPLLRITSLSYSESGEFLNYSVMFRNASEY,not soluble
5,MSLKYVDEFREPEKAEALCREITKLSHQLEKPIKIMEVCGGHTHSIFKYGIEEILPQTIELIHGPGCPVCVMPKGRLDDAIAISQNHNVIFATFGDAMRVPGSKTSLLQARAQGADIRMVYSPLDSLQIAKDHPDREVVFFALGFETTAPSTGFTIVQAAAEEIHNFSMFSNHVLVIPALKALLDNPDLQLDGFVGPGHVSMVIGSDPYQFISQQYNKPIVVSGFEPLDILQSIWMLLQQIVENRCEVENQYNRIVQKSGNTVALQAINKVFAVRDSFDWRGLGDIPYSGLKIKPEYAQFDAELKFTIPNLKVADHKACKCGEILKGVLKPWECKVFGTACTPETPIGTCMVSSEGACAAYYKYGRLSTIAKRTITQKPKITQEPLPACGFSLDEGHHHHHH,not soluble
6,MKSVVSSRETRSESNKSRRTFASTEWNKIIRETLYLETIYIPLDATSHSPDIIFQLQSPVEPKVLTVGVACKGRWKSEGIGWSDIIDEAKKFLDPVYDQVLSSAMDYHHCMLIIVSTKLSLNVSNELGNQSRCYSSGMFIRGDSFKVPDNCELVILCERDVQMLIDEEILSGLERAFHVSRSPTFWDFRLDLLVNLQ,not soluble
7,MKTVTARPLTAEAFAPYGSVADISELENLVSLADAYEGTGEAKTPVLQLVQAKAMSGSPVISQMEIHPFSSQTFLPLDQSSSLIVVCEAGEDGMPDESTIKAFLASPSQIVTYRHGVMHHRLTPLAPSGRFAMTMWQTGRGGDTVLYPLHTPVSVDISDITP,not soluble
8,MILVTGATGVVGRQVAHTLARSGRVRLLVRDPARLTVEGPGVEVATGAYEDHASLLRALKGVEAAFLVTVDPGGQEDGRFLRAAVAADVRHVVKLSSYAAGEDDADDLITRWQRKCEETLRSSGLDWTLLRPRAFMSNTLSWADSIRREGTVRALYPGSENACVDPRDIAEVAVTALTSPGHEGRVYPLTGPEAVSAEQQTRHLAAVLGRPLVCRELTPQQAAARWARRYPPKVVHALVLSAQRQLLGRKTTTDPTFARVTGHPPRSYRQWATDHRNAFA,not soluble
9,MSLRLKTILLTTMATGSFLCEPVAAMCIEPPATPDMGWFLKKKKKSNPQDSIKVKNEYEKLTGSDSVVRRGMFNVYQKKNDYYFEIPSTLLERDMLVVNKLQRVPAELNEAGVNRGTNYENQMIRFELDKSANKLLIRQSRPLPISPSEDAISQSVKDNYISPLIAGFKVEAYNNDSTSILIKVNDIYDGTETSINNVFTNINLGTSAIKNLSRILSIKSFDNNVVATSELTTRVTEGTTTIYVTVEVSSSILLLPEVPMTGRLDNPRVGYFTNPLTNFSDGQQRVNKKQFITRWRLEPRPEDRAAYLRGELVEPRKPIVFYIENSTPYRWRKYIKQGIEDWQVAFERAGFKNAIIAKDITEDMEVDMDDVNYSVLTYAASTKANAMGPSILDPRSGEILEADIMWWHNVLSMLQEWITVQTGVVRPEARGVALPDSLMGDAMRFVACHEVGHSLGLRHNMMGSWAFPTDSLRSKTFTDRMNSTSSSIMDYARFNYVAQPGDGIKALSPHIGPYDMFAIEYGYRWYGKQTPEEEKELLQDFLAKHTDRLYKYSEAQDEGHHHHHH,soluble
10,MLRLARKGLQTAVVRSYAKDVKFGAEGRQAMLVGVNLLADAVSVTMGPKGRNVIIEQSWGSPKITKDGVTVAKSIDLKDKYQNLGAKLIQDVANKANEEAGDGTTCATVLARAIAKEGFESIRQGGNAVEIRRGVMNAVEVVVAELKKISKKVTTPEEIAQVATISANGDTVVGNLISDAMKKVGTTGVITVKDGKTLNDELELIEGMKFDRGYISPYFITSAKGAKVEYEKALVLLSEKKISQVQDIVPALELANKLRRPLVIIAEDVDGEALTTLVLNRLKVGLQVVAIKAPGFGDNRKNTLKDMGIATGATIFGDDSNLIKIEDITANDLGEVDEVTITKDDTLLLRGRGDQTEIEKRIEHITDEIEQSTSDYEKEKLNERLAKLSKGVAVLKIGGGSEVEVGEKKDRVTDALCATRAAVEEGIVPGGGVALLRSLTALKNYKAANEDQQIGVNIVKKALTQPIATIVKNAGLEPSSIIDEVTGNSNTSYGYDALNGKFVDMFEAGIIDPTKVVRTALQDASGVASLLATTECVVTEIPKEEAVGGPAGGMGGMGGMGGMGGMGF,not soluble
11,MTIQPPSSSSATEFCQPDESTFLVGFNRVRRYGTTQSQSSPVTPCSYTIYQVQTDDTLERIALKHNCSVSSLVRANKLWSPSALFMKQFIRIPIFNSQQPNLKPSLQETQCKIVPATTERVDSSREEKSMKDILQRIDRNIKSFRKCDNPSSSAYDHI,not soluble
12,MEIVLTREKMEITATPIRTRYIDRNEDFVSESIHSLKKEIENGFEIKNGDFLVVSEKFIATSEDNFVDESLADPKFWAYFTYYLSKYGWGYVLGPLLGTRGDRVKNLRKMPKTETLKHKQIVIENVGLIYALKPASEGGIDLTNVPGTYASLLPENPEYSAKKLHKKIKEDLDLDLTVMVIDTDATYRFFNWYVTALPIAVEGITSKIGVFGYILGKFGKILNQGGLCGATPLAITGNENYKKYPLKTLLYIANLSDTSQVPYTKSIHDLMKKYNTFEITVDVLKEMEHSPLVIVKCE,not soluble
13,GSMIDKSAFVHPTAIVEEGASIGANAHIGPFCIVGPHVEIGEGTVLKSHVVVNGHTKIGRDNEIYQFASIGEVNQDLKYAGEPTRVEIGDRNRIRESVTIHRGTVQGGGLTKVGSDNLLMINAHIAHDCTVGNRCILANNATLAGHVSVDDFAIIGGMTAVHQFCIIGAHVMVGGCSGVAQDVPPYVIAQGNHATPFGVNIEGLKRRGFSREAITAIRNAYKLIYRSGKTLDEVKPEIAELAETYPEVKAFTDFFARSTRGLIR,soluble
